What all share (test): FACS, transfected 293T
Background: A flow cytometer gives signals particle by particle.

Test [1] addresses T1, (1-43)::FLAG::ckCDH19(44-468)::huCDH19(464-772), on 293T cells (human/chicken chimera).
T1 construct: Entry holds leader (1-43), Flag tag and CDH19 part; leader left out; also called Hu EC5 (chicken backbone)
T1 chain: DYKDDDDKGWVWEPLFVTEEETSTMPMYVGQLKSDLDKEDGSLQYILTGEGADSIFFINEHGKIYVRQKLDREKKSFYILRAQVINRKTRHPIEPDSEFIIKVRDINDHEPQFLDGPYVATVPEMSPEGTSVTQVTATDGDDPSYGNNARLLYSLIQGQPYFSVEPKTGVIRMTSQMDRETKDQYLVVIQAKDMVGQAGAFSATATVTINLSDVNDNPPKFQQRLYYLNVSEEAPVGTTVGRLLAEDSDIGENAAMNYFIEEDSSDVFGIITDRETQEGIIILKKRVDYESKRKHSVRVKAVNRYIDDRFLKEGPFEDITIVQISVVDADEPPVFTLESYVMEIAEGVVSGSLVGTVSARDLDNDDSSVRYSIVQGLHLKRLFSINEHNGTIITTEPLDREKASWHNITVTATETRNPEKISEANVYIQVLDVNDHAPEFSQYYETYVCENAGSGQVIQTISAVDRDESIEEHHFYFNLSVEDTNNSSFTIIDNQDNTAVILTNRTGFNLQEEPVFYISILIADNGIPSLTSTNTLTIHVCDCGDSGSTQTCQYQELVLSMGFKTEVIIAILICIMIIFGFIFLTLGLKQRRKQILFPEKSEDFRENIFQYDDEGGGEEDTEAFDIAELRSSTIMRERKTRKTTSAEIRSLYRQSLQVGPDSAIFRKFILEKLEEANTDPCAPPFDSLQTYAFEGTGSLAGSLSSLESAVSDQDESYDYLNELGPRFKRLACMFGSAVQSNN
Description: (§1) The following binding assay was completed in presence of 2 mM CaCl2. […] Cells were then washed one time and the amount of cell associated Alexa647-labelled Ab was quantitated by flow cytometry. The experiments included mock transfected controls.

In test [2] the target is T2, ckCDH19(1-43)::FLAG::ckCDH19(44-249)::huCDH19(250-364)::ckCDH19(365-776), on 293T cells (human/chicken chimera).
T2 construct: Entry holds leader (1-43), Flag tag and CDH19 part; leader left out; also called Hu EC3 (chicken backbone)
Description: as §1

Test [3] addresses T3, huCDH19(1-43)::FLAG::hu(44-141)::ckCDH19(142-776), on 293T cells (human/chicken chimera).
T3 construct: Entry holds leader (1-43), Flag tag and CDH19 part; leader left out; also called Hu EC1 (chicken backbone)
Description: as §1

The target of test [4] is T4, huCDH19(44-772), Flag-tagged, on 293T cells (human, UniProt Q9H159 44-772).
T4 construct: Expressed with native leader (1-43) followed by a Flag tag; leader left out; also called Hu EC1-5
Description: as §1

Test [5] deals with T5, ckCDH19(1-43)::FLAG::ckCDH19(44-141)::huCDH19(142-249)::ckCDH19(250-776), on 293T cells (human/chicken chimera).
T5 construct: Entry holds leader (1-43), Flag tag and CDH19 part; leader left out; also called Hu EC2 (chicken backbone)
T5 chain: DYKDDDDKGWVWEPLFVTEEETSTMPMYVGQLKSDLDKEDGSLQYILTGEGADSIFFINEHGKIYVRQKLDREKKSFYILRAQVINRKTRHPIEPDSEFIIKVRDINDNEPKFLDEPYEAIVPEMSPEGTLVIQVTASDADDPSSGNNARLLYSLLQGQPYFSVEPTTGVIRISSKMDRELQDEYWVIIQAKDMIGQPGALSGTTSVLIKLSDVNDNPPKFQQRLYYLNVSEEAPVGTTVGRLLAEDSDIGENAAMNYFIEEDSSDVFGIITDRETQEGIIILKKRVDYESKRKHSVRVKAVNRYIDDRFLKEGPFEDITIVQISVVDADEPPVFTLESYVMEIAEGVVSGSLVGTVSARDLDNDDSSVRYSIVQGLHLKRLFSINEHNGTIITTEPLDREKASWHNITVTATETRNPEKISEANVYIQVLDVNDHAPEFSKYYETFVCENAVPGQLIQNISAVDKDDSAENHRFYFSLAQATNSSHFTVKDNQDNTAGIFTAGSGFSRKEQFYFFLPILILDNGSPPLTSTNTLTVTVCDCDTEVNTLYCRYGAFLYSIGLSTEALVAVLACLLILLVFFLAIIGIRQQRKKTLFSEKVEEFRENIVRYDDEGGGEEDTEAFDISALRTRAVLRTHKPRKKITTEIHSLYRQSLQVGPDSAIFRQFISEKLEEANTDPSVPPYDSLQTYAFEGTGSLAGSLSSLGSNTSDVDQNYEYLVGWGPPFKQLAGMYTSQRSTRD
Description: as §1

Test [6] deals with T6, huCDH19(44-141)::muCDH19(140-770), Flag-tagged, on 293T cells (human/mouse chimera).
T6 construct: also called Hu EC1
Excerpt: (§2) The experiment included assaying the anti-CDH19 antibodies against mouse Cadherin19 to determine suitability for binning on these human/mouse chimeras.

The target in test [7] is T7, huCDH19(44-249)::muCDH19(248-770), Flag-tagged, on 293T cells (human/mouse chimera).
T7 construct: also called Hu EC1-2; C137896
Excerpt: as §2

B1: hu anti-<huCDH19> 4B10 VH::huIgG1z / 4B10 VL::huKLC (Ab ID 13590) (antibody, V domains shown)
VH: QVQLVESGGGVVQPGRSLRLSCAASGFTFSSYDMHWVRQAPGKGLEWVAVISYDGTNEYYADSVKGRFTISRDTSKNTLYLQMNSLRAEDTAVYYCARERYFDWSFDYWGQGTLVSVSS
VL: EIVLTQSPGTLSLSPGERATLSCRASQSVSNTYLAWYHQRPGQAPRLLIYGASSRATGIPDRFSGSGSGTDFALTISSLEPEDFAVYYCQQYSNSWTFGQGTKVEIKR
Regarding B1, the binding result in test [1] is given as “no binding (tested: 5 ug/ml)”; in test [2] it was “binds”; in test [3], “no binding (tested: 5 ug/ml)”; in test [4], “binds”; in test [5], “no binding (tested: 5 ug/ml)”.

B2: hu anti-<huCDH19> 4A9 VH::huIgG1z / 4A9 VL::huLLC-C1 (Ab ID 13589) (antibody, V domains shown)
VH: QVQLQESGPGLVKPSETLSLTCTVSGGSISGYYWSWIRQPPGKGLEWFAYFSYSGSTNYNPSLKSRVTLSVDTSKNQFSLKLSSVTAADTAVYYCARNWAFHFDFWGQGTLVTVSS
VL: QSVLTQPPSVSGAPGQRVTISCTGSSSNIGTGYAVHWYQQFPGTAPKLLIYGNNNRPSGVPDRFSGSKSGTSASLAITGLQAEDEADYYCQSYDSRLSGWVFGGGTKLTVLG
notes: Recombinant fully human IgG1
Turning to B2, the binding result was “no binding (tested: 5 ug/ml)” in test [1]; “no binding (tested: 5 ug/ml)” in test [2]; “binds” in test [3]; “binds” in test [4]; “no binding (tested: 5 ug/ml)” in test [5]; “binds” in test [6]. Besides, the binding result in test [7] is listed as “binds”.

B3: anti-CDH19 antibody 2G6 (Ab ID 13588) (antibody, human IgG1, lambda, V domains shown)
VH: QVQLVESGGGVVQPGRSLRLSCAASGFTFSSYGMHWVRQAPGKGLEWVAFIWYDGSNKYYADSVKDRFTISRDNSKNTLYLQMKSLRAEDTAVYYCARRAGIIGTIGYYYGMDVWGQGTTVTVSS
VL: SYELTQPPSVSVSPGQTASITCSGDRLGEKYTCWYQQRPGQSPLLVIYQDTKRPSGIPERFSGSNSGNTATLTISGTQAMDEADYYCQAWDSSTVVFGGGTKLTVLG
Regarding B3, the binding result in test [1] is given as “no binding (tested: 5 ug/ml)”; in test [2] it was “binds”; in test [3], “no binding (tested: 5 ug/ml)”; in test [4], “binds”; in test [5], “no binding (tested: 5 ug/ml)”; in test [6], “binds”. Moreover, the binding result in test [7] is reported as “binds”.

B4: hu anti-<huCDH19> 23A10.3 (1-474)(L92Q) VH::huIgG1z / 23A10.3 (1-231)(C42S) VL::huLLC-C2 (Ab ID 14077) (antibody, V domains shown)
VH: QVQLVESGGGVVQPGRSLRLSCAASGFTFSRYGIHWVRQAPGKGLEWVAVIWYDGSNKYYADSVKGRFTISRDNSKNTLYLQMNSLRAEDSAVYYCARRAGIPGTTGYYYGMDVWGQGTTVTVSS
VL: SYELTQPPSVSVSPGQTASITCSGDRLGEKYVSWYQQKPGQSPILVIYQDNKWPSGIPERFSGSNSGNTATLTISGTQAMDEADYYCQAWDSSTVVFGGGTKLTVLG
notes: Engineered variant of 23A10
As for B4, the binding result in test [1] was “no binding (tested: 5 ug/ml)”; in test [2] it was “binds”; in test [3] it was “no binding (tested: 5 ug/ml)”; in test [4] it was “binds”; in test [5], “no binding (tested: 5 ug/ml)”.

B5: hu anti-<huCDH19> 25F8.1 (1-469)(F90Y) VH::huIgG1z / 25F8.1 (1-235)(K45Q,S102A,D111E) VL::huLLC-C2 (Ab ID 14096) (antibody, V domains shown)
VH: QVQLVQSGAEVKKPGASVKVSCKASGYTFTSYYIHWVRQAPGQGLEWMGIINPSGGSTRYAQKFQGRVTMTRDTSTSTVYMELSSLRSEDTAVYYCARGGIQLWLHFDYWGQGTLVTVSS
VL: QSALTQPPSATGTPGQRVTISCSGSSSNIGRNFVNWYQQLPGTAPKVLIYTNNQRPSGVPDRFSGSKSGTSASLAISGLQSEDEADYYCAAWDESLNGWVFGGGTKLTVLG
notes: Engineered variant of 25F8
Regarding B5, the binding result in test [1] is recorded as “no binding (tested: 5 ug/ml)”; in test [2] it was “no binding (tested: 5 ug/ml)”; in test [3], “binds”; in test [4], “binds”; in test [5], “no binding (tested: 5 ug/ml)”.

B6: hu anti-<huCDH19> 26D1.1 VH::huIgG1z / 26D1.1 VL::huLLC-C2 (Ab ID 13882) (antibody, V domains shown)
VH: QVQLVQSGAEVKKPGASVKVSCKASRYTFTSYYMSWVRQAPGQGLEWMGIIHPSGGDTTYAQKFQGRVTMTGDTSTSTVYMELSSLRSEDTAVYYCARGGIKLWLHFDYWGQGTLVTVSS
VL: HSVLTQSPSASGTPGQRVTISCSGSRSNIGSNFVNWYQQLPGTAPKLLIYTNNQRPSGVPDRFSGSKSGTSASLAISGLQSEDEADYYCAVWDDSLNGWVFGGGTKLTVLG
For B6, the binding result is given as “no binding (tested: 5 ug/ml)” in test [1]; “no binding (tested: 5 ug/ml)” in test [2]; “binds” in test [3]; “binds” in test [4]; “no binding (tested: 5 ug/ml)” in test [5]; “binds” in test [6]. Further, the binding result in test [7] is “binds”.

B7: anti-CDH19 antibody 4A2 (Ab ID 13592) (antibody, human IgG1, kappa, V domains shown)
VH: QVQLQESGPGLVKPSQTLSLTCTVSGGSISSSGYYWSWIRQHPGKGLEWIGYIYYTGSAYYNPSLKSRVTISVDTSKNQFSLKLSSVTAADTAVYYCARDGSSGWYFQYWGQGTLVTVSS
VL: EIVLTQSPGTLSLSPGERATLSCRASRNISSSYLAWYQQKPGQAPRLLIYGPSSRATGIPDRFSGSGSGTDFTLTISRLEPEDFTVYYCQQYGSSFTFGPGTKVDIKR
For B7, the binding result in test [1], in test [3] and in test [5] was “no binding (tested: 5 ug/ml)” each time.

The values above are taken from patent US20140322218A1 (Amgen, published 2014).
